Data: publication PMC6341108, “Anti-LRP5/6 VHHs promote differentiation of Wnt-hypersensitive intestinal stem cells” (Nature Communications, 2019)
“And” between values parts separate entries of the source, which are not always exact repeats. Identical values can stand only once.

Legend:
[1] = biological target: LRP6 P3E3P4E4 (Homo sapiens) (UniProt O75581); conditions: cited from earlier work
[2] = biological target: LRP6 P1E1P2E2 (Homo sapiens) (UniProt O75581); conditions: cited from earlier work
Sequence of LRP6 P1E1P2E2 (Homo sapiens) (O75581 20-630): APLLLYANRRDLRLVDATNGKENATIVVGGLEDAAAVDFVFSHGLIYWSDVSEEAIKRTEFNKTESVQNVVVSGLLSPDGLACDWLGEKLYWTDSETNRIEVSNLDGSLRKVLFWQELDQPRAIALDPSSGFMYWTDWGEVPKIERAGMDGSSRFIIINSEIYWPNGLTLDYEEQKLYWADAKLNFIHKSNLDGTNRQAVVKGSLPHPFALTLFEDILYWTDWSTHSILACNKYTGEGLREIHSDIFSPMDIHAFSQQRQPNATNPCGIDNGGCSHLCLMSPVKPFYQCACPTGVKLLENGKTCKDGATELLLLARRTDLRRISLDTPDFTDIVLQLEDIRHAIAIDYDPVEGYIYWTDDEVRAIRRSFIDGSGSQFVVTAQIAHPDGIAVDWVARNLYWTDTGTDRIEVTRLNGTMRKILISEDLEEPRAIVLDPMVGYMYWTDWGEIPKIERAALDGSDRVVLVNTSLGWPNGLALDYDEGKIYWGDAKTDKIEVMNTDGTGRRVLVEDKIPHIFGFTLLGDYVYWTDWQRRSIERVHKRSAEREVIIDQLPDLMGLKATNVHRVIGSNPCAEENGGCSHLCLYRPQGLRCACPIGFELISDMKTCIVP

[3] = biological target: T1, human LRP6 β-propeller-EGF modules P3E3P4E4 (Homo sapiens); test: quartz crystal microbalance (QCM); LRP6 P3E3P4E4 immobilised by amine coupling on an Attana LNB chip; VHH injected at four rising concentrations (single cycle kinetics); 22 °C, HBS-T, 25 µL/min; 1:1 fitting model; conditions: both partners purified
T1 construct: Low-density lipoprotein receptor-related protein 6 (LRP6), human, domains P3E3P4E4; the methods say Uniprot residues 639-1244, the results say UNIPROT residues 629-1244; Expressed from pUPE107.03 with an N-terminal cystatin secretion signal; also called LRP6^P3E3P4E4; LRP6 P3E3P4E4; source: HEK293 GnTI- cells, transiently co-expressed with human MESD, secreted, purified (Ni-Sepharose excel, SEC …)
T1 chain: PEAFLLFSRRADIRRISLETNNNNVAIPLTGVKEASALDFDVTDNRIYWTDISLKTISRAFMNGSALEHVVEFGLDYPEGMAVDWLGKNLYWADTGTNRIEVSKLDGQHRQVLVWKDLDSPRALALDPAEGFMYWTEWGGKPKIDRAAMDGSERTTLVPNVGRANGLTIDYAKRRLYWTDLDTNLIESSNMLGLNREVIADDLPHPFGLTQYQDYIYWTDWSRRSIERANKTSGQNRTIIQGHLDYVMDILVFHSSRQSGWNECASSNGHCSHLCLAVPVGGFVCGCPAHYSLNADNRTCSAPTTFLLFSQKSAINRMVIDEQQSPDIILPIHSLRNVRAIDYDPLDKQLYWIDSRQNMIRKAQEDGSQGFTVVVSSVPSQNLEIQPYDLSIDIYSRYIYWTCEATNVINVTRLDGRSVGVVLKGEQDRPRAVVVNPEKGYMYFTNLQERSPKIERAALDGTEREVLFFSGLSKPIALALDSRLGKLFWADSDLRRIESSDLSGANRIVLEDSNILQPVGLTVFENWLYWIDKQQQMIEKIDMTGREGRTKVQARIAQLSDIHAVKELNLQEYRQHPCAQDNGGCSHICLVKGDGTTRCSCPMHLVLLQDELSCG

[4] = biological target: T2, human LRP6 β-propeller-EGF modules P3E3P4E4 (Homo sapiens); test: ITC; 10 µM LRP6 P3E3P4E4 in the sample cell, 100 µM VHH injected, DPBS, 25 °C; triplicate; conditions: both partners purified
T2 construct: low-density lipoprotein receptor-related protein 6 (LRP6), human, domains P3E3P4E4; Cloned with an N-terminal cystatin secretion signal; also called LRP6^P3E3P4E4; LRP6 P3E3P4E4; source: HEK293 GnTI- cells, transiently co-expressed with human MESD, secreted, purified (Ni-Sepharose excel, SEC)
T2 chain: T1 chain

[5] = biological target: T3, human LRP6 β-propeller-EGF modules P3E3P4E4 (Homo sapiens); test: cell-based or functional assay
T3 chain: T1 chain

[6] = biological target: T3, human LRP6 β-propeller-EGF modules …; test: quartz crystal microbalance (QCM); LRP6^P3E3P4E4 immobilised by amine coupling on an Attana LNB chip; VHHs injected (0.03-0.25 µg/mL) in HBS-T, single-cycle kinetics, 22 °C, 1:1 fitting model; conditions: both partners purified
[7] = biological target: T3, human LRP6 β-propeller-EGF modules …; test: ITC; 10 µM LRP6^P3E3P4E4 in the cell, 100 µM VHH injected, DPBS, 25 °C, triplicate; conditions: both partners purified
[8] = biological target: T4, human LRP6 β-propeller-EGF modules P3E3P4E4 (human, UniProt O75581 639-1244); test: ITC
T4 chain: T1 chain

Sequence of LRP6 P3E3P4E4 (Homo sapiens) (O75581 631-1246): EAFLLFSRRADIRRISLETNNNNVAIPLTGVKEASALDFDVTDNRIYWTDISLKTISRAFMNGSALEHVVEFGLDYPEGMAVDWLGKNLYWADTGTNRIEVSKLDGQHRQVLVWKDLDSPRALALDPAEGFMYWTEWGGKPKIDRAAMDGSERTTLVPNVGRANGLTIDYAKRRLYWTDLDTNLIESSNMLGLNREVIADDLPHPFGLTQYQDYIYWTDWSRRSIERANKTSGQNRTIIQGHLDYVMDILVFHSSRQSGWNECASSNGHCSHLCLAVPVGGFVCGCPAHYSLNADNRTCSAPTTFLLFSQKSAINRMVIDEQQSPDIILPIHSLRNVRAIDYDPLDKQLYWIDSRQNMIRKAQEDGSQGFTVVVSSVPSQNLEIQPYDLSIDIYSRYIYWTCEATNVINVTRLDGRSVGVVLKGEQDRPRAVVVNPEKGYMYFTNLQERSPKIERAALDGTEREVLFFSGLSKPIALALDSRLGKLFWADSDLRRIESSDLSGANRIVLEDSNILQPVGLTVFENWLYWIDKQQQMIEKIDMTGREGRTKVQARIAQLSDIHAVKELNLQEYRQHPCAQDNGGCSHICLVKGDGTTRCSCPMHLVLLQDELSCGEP

Molecule: DKK1 DKK1_C (from UniProt O94907)
- Kd [1]: 70 nM
- Kd [2]: 70 nM

B1: anti-LRP6 VHH L-P2-D07, C-terminal V5-FLAG3-His6-tagged (VHH)
VHH: EVQLQESGGGLVQAGGSLRLSCAASGRTFSIYTIGWFRQAPGKEREFVAEITWSGGSTYYADSVKGRFTISRDNAKNTVYLQMNSLKPEDTAVYYCAAITYTRGIYKYWGQGTQVTVSS
notes: also in the deposited structure of the complex with LRP6 P3E3P4E4; Selected by CIS display from a fully synthetic VHH library; also called L-P2-D07-V5-Flag3-His6; source: E. coli BL21 Gold, purified (IMAC, SEC Superdex 75); not shown: V5, C-terminal, kept; FLAG3, C-terminal, kept; His6, C-terminal, kept
- Kd [3]: 0.4 nM
- koff [3]: 0.00015 s⁻¹
- kon [3]: 370000 M⁻¹ s⁻¹

B2: anti-LRP6 VHH L-P2-D07 (VHH)
VHH: B1 VHH
notes: they are in the deposited structure of its complex with LRP6 P3E3P4E4 (PDB 6H15 or 6H16); Selected by CIS display from a fully synthetic VHH library; source: E. coli BL21, purified (IMAC, SEC); not shown: V5, C-terminal, kept; FLAG3, C-terminal, kept; His6, C-terminal, kept
- Kd [4]: 30.3 nM and 35.7 nM and 29.4 nM
- stoichiometry N [4]: 0.921 and 0.893 and 0.881

B3: anti-LRP6 VHH L-P2-D07 with C-terminal V5-FLAG3-His6-tag (VHH)
VHH: B1 VHH
notes: Selected by CIS display from a fully synthetic VHH library; also called anti-LRP6^P3E3P4E4 VHH; anti-LRP5/6^P3 VHH; source: E. coli BL21 (BL21-Gold), purified (IMAC, SEC Superdex 75); not shown: V5, C-terminal, kept; FLAG3, C-terminal, kept; His6, C-terminal, kept
- IC50 of inhibition of cellular responses to Wnt3a (Wnt luciferase reporter, HEK293T); blocks Wnt3a with LRP6 [5]: 94 nM
- IC50 of inhibition of cellular responses to the combination of Wnt3a and R-spondin1 (Wnt luciferase reporter, HEK293T); blocks Wnt3a with LRP6 [5]: 40 nM
- koff [6]: ~0.0001 s⁻¹
- kon [6]: ~100000 M⁻¹ s⁻¹
- Kd [7]: < 40 nM
- stoichiometry N [7]: 1

B4: anti-LRP6 VHH L-P2-B10 with C-terminal V5-FLAG3-His6-tag (VHH)
VHH: EVQLQESGGCLVQAGGSLRLSCAASGSTFSTYTIGWFRQAPGKEREFVAAIHWDGGQTYYADSVKGRFTISRDNAKNTVYLQMNSLKPEDTAVYYCAARGRRYFDFTYSDVYDYWGQGTQVTVSS
notes: as for B3
- IC50 of inhibition of cellular responses to Wnt3a (Wnt luciferase reporter, HEK293T); blocks Wnt3a with LRP6 [5]: 82 nM
- IC50 of inhibition of cellular responses to the combination of Wnt3a and R-spondin1 (Wnt luciferase reporter, HEK293T); blocks Wnt3a with LRP6 [5]: 40 nM
- koff [6]: ~0.0001 s⁻¹
- kon [6]: ~100000 M⁻¹ s⁻¹
- Kd [7]: < 40 nM
- stoichiometry N [7]: 1
- Kd [8]: 12.8 nM

B5: anti-LRP6 VHH L-P2-B10 (VHH)
VHH: B4 VHH
notes: as for B2
- Kd [4]: 14.5 nM and 11.9 nM and 12.2 nM
- stoichiometry N [4]: 1.09 and 1.08 and 1.15

B6: anti-LRP6 VHH L-P2-B10, C-terminal V5-FLAG3-His6-tagged (VHH)
VHH: B4 VHH
notes: also in the deposited structure of the complex with LRP6 P3E3P4E4; Selected by CIS display from a fully synthetic VHH library; source: E. coli BL21 Gold, purified (IMAC, SEC Superdex 75); not shown: V5, C-terminal, kept; FLAG3, C-terminal, kept; His6, C-terminal, kept
- Kd [3]: 0.8 nM
- koff [3]: 0.00014 s⁻¹
- kon [3]: 180000 M⁻¹ s⁻¹

B7: anti-LRP6 VHH L-P2-H07, C-terminal V5-FLAG3-His6-tagged (VHH)
VHH: EVQLQESGGGLVQAGGSLRLSCAASGDIISSYRMGWFRQAPGKEREFVSDITPSIGHTYYADSVKGRFTISRDNAKNTVYLQMNSLKPEDTAVYYCRAVDRSYRYPYEYWGQGTQVTVSS
notes: Selected by CIS display from a fully synthetic VHH library; No structure of its complex was deposited; source: E. coli BL21 Gold, purified (IMAC, SEC Superdex 75); not shown: V5, C-terminal, kept; FLAG3, C-terminal, kept; His6, C-terminal, kept
- Kd [3]: 2.3 nM
- koff [3]: 0.00018 s⁻¹
- kon [3]: 81000 M⁻¹ s⁻¹
- Kd [8]: 17.5 nM
